Test results as given in article PMC3660353.
“And” between values parts separate entries of the source, which are not always exact repeats. Equal entries are not always repeated.

T1: recombinant, full-length human claudin-1 (human), O95832
T1 chain: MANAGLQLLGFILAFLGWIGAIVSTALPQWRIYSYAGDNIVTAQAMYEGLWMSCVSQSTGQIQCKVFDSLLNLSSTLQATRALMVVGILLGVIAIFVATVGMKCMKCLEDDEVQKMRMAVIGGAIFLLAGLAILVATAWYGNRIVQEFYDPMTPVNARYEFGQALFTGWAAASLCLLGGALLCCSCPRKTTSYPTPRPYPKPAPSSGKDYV

B1: recombinant, full-length human claudin-1, O95832 1-211 (natural protein)
chain: T1 chain

Key:
[1] = target: recombinant, full-length human CD81 with six putative palmitoylation sites mutated to alanine (human) (UniProt P60033); assay: dynamic light scattering; single purified proteins in detergent micelles (claudin-1 in foscholine-10, CD81 in βOG), with and without CHEMS, 20°C; oligomeric state predicted from the hydrodynamic radius
[2] = target: recombinant, full-length human claudin-1 (human) (UniProt O95832); assay: dynamic light scattering; purified proteins in detergent micelles (claudin-1 in foscholine-10, CD81 and CD82 in βOG) mixed at a 1:2 molar ratio, with and without CHEMS, 20 mM MOPS pH 8, 1% βOG, 20°C, followed for 23-36 h
[3] = target: T1, recombinant, full-length human …; assay: AUC; claudin-1 in βOG micelles; sedimentation velocity, continuous c(s) distribution model (SEDFIT); conditions: remark: other sources report otherwise
[4] = target: T1, recombinant, full-length human …; assay: dynamic light scattering; single purified proteins in detergent micelles (claudin-1 in foscholine-10, CD81 in βOG), with and without CHEMS, 20°C; oligomeric state predicted from the hydrodynamic radius; conditions: remark: other sources report otherwise
[5] = target: T1, recombinant, full-length human …; assay: non-reducing SDS-PAGE with immunoblot; P. pastoris total membranes, 1 µg protein per well, sample buffer without β-mercaptoethanol, 12% gel, blot with anti-His6; conditions: remark: other sources report otherwise
[6] = target: T1, recombinant, full-length human …; assay: reducing SDS-PAGE (Coomassie); proteins solubilised in βOG and eluted from a nickel affinity column; conditions: remark: other sources report otherwise

Row | Molecule | stoichiometry N [1] | stoichiometry N [2] | stoichiometry N [3] | stoichiometry N [4] | stoichiometry N [5] | stoichiometry N [6]
1 | recombinant, full-length human CD81 with six putative palmitoylation sites mutated to alanine (from UniProt P60033 1-236) (natural protein) | 2 | 2 | – | – | – | –
2 | B1 | – | – | 2 | 2 | 2 and 3 | 2
